± gives the standard deviation of the averaged measurements.
Tested on: ATP
Test: switch fluorescence ratio, 500 uM ATP over buffer (Cy3 cluster intensity, sum of 5 cycles each) (fold (ratio)); higher = stronger signal-on switching upon ATP binding; sequences stand for … in TCGTCGGCAGCGTCAGATGTGTATAAGAGACAGTTTTTTTTTTTTTTTTTTTTTTTTT…TC
Conditions: aptamer strand: ATP DNA aptamer (quencher-CACCTGGGGGAGTATTGCGGAGGAAGG + anchor), 100 nM annealed; ATP concentration: 500 uM
Method in brief: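 Clusters with intensities outside 100-1000 RFU were excluded. The remaining Cy3-labelled switching-strand clusters on a modified Illumina MiSeq flow-cell had been annealed to 100 nM quencher-labelled ATP aptamer and imaged in selection buffer, then after 15 min with 500 uM ATP at 22 °C, for five cycles separated by NaOH stripping and re-annealing. The fluorescence ratio, averaged per switch-domain sequence, is each cluster's summed target-cycle Cy3 intensity over its summed buffer-cycle Cy3 intensity.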
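Also: ATP exposure 15 min at 22 °C before imaging.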

Row | Sequence | switch fluorescence ratio
1 | TAGTTTATTT | 1 ± 0.015
2 | TAGTTTCCCA | 0.971 ± 0.024
3 | TAGTTTCGAT | 0.977 ± 0.019
4 | TAGTTTGATG | 0.986 ± 0.017
5 | TAGTTTTATG | 0.959 ± 0.015
6 | TAGTTTTTTA | 1.02 ± 0.015
7 | TAGTTTTTTT | 0.986 ± 0.022
8 | TATAAAAAAA | 1.02 ± 0.051
9 | TATAAAACCC | 1.1 ± 0.045
10 | TATAAAAGGA | 1 ± 0.019
11 | TATAAAGGG | 0.956 ± 0.022
12 | TATAAAGGTG | 1.11 ± 0.14
13 | TATAACACTT | 1.05 ± 0.024
14 | TATAACGGAG | 1.01 ± 0.014
15 | TATAACGTTA | 0.993 ± 0.015
16 | TATAAGAGAA | 0.972 ± 0.031
17 | TATAAGATTA | 1.015 ± 0.0027
18 | TATAAGCTAG | 1.03 ± 0.017
19 | TATAAGGAGG | 0.9935 ± 0.0033
20 | TATAATACGG | 1.02 ± 0.02
21 | TATAATAGAA | 0.983 ± 0.027
22 | TATAATCCAG | 0.984 ± 0.024
23 | TATAATCGTG | 0.988 ± 0.021
24 | TATAATTGCG | 0.977 ± 0.036
25 | TATAATTTCG | 1.003 ± 0.0024
26 | TATACAAATT | 0.989 ± 0.043

Row | Sequence | switch fluorescence ratio
27 | TATACAGCGA | 1.0822 ± 0.00025
28 | TATACATTCA | 1.07 ± 0.019
29 | TATACATTGG | 0.98862 ± 5.5e-05
30 | TATACCGGTA | 1.022 ± 0.0067
31 | TATACGAAAT | 1.49 ± 0.58
32 | TATACGATCT | 0.999 ± 0.03
33 | TATACGGCAC | 2.04 ± 0.14
34 | TATACGGCAT | 1.119 ± 0.0049
35 | TATACGGTTT | 1.03 ± 0.083
36 | TATACTCAGG | 1.05 ± 0.029
37 | TATAGACTTT | 1.02 ± 0.019
38 | TATAGATGAC | 0.989 ± 0.017
39 | TATAGATGTG | 1.013 ± 0.0024
40 | TATAGATTTT | 1.003 ± 0.0078
41 | TATAGCAGTT | 1.01 ± 0.013
42 | TATAGCTTTT | 0.9869 ± 0.0031
43 | TATAGGCTCA | 0.976 ± 0.033
44 | TATAGGCTTT | 0.97 ± 0.024
45 | TATAGGGCC | 1 ± 0.017
46 | TATAGGTATG | 1.01 ± 0.012
47 | TATAGGTCGA | 1.03 ± 0.011
48 | TATAGGTGAG | 1.01 ± 0.03
49 | TATAGTATTT | 0.984 ± 0.015
50 | TATAGTGCTC | 0.986 ± 0.054
51 | TATAGTGTAA | 1.01 ± 0.048
52 | TATAGTTGTG | 0.965 ± 0.025

Row | Sequence | switch fluorescence ratio
53 | TATATAAGAA | 1.01 ± 0.033
54 | TATATATCAA | 1.003 ± 0.005
55 | TATATCGGAC | 1 ± 0.014
56 | TATATCTCCG | 1.12 ± 0.015
57 | TATATGAGTT | 0.963 ± 0.0099
58 | TATATGGCAT | 1.05 ± 0.085
59 | TATATGGCGG | 0.9719 ± 0.0074
60 | TATATGGGGT | 1 ± 0.042
61 | TATATGTGAT | 0.987 ± 0.017
62 | TATATGTGGG | 0.9705 ± 0.0077
63 | TATATTTCTA | 0.999 ± 0.035
64 | TATATTTTCA | 1.01 ± 0.068
65 | TATCAACTTG | 1.02 ± 0.037
66 | TATCACATTG | 0.992 ± 0.039
67 | TATCAGGTAG | 1.001 ± 0.0052
68 | TATCATATTA | 1 ± 0.037
69 | TATCATGCGC | 1.02 ± 0.054
70 | TATCATGGGA | 0.9982 ± 0.0087
71 | TATCATGGTG | 1.05 ± 0.058
72 | TATCCAGGGA | 1.026 ± 0.0046
73 | TATCCCAGGC | 1.31 ± 0.032
74 | TATCCTTTTT | 1.03 ± 0.057
75 | TATCGAGGGT | 0.9698 ± 0.0094
76 | TATCGAGTCG | 0.997 ± 0.034
77 | TATCGCCCTC | 1.07 ± 0.011
78 | TATCGGAGAG | 0.9835 ± 0.0016

Row | Sequence | switch fluorescence ratio
79 | TATCGGCTGT | 1.01 ± 0.011
80 | TATCGGGGTA | 1.002 ± 0.0047
81 | TATCGGTAGC | 1.017 ± 0.0025
82 | TATCGTAGAG | 1.011 ± 0.0072
83 | TATCGTGGAG | 1.04 ± 0.042
84 | TATCGTTTTT | 0.987 ± 0.046
85 | TATCTAGGTC | 0.954 ± 0.086
86 | TATCTGGGCA | 1.06 ± 0.087
87 | TATCTGGTAG | 1 ± 0.025
88 | TATCTTACGA | 1.02 ± 0.041
89 | TATCTTTCGG | 0.997 ± 0.021
90 | TATGAAAAGT | 0.9926 ± 0.0072
91 | TATGAACTGC | 1.04 ± 0.041
92 | TATGAGAAGC | 1 ± 0.017
93 | TATGAGCGCT | 1.03 ± 0.054
94 | TATGAGGCCA | 1.04 ± 0.023
95 | TATGAGGGGG | 1.02 ± 0.04
96 | TATGAGGGTG | 1.08 ± 0.13
97 | TATGAGGGTT | 1 ± 0.038
98 | TATGAGTTGC | 1.03 ± 0.011
99 | TATGATAACT | 1.031 ± 0.0077
100 | TATGATCTAG | 0.995 ± 0.014
101 | TATGATGTAA | 1.02 ± 0.049
102 | TATGATTCAG | 0.98 ± 0.012
103 | TATGATTTAT | 0.995 ± 0.062
104 | TATGCAATCA | 1.03 ± 0.02

Row | Sequence | switch fluorescence ratio
105 | TATGCATGGA | 1.009 ± 0.0082
106 | TATGCCCAGA | 1.03 ± 0.041
107 | TATGCCTCTT | 1.01 ± 0.031
108 | TATGCGCAGA | 1.01 ± 0.03
109 | TATGCTGGAT | 1.02 ± 0.059
110 | TATGGAGATA | 0.999 ± 0.013
111 | TATGGAGGTT | 0.969 ± 0.0074
112 | TATGGCATCG | 0.99 ± 0.014
113 | TATGGCTCTA | 0.9731 ± 0.00019
114 | TATGGGACTC | 1.032 ± 0.0025
115 | TATGGGCCGG | 1.07 ± 0.018
116 | TATGGGGGGC | 0.983 ± 0.047
117 | TATGGGGGTA | 1.01 ± 0.029
118 | TATGGGGGTC | 1.02 ± 0.015
119 | TATGGTAGC | 0.989 ± 0.048
120 | TATGGTCTTA | 0.987 ± 0.021
121 | TATGGTCTTT | 0.979 ± 0.019
122 | TATGGTGAAG | 1 ± 0.024
123 | TATGGTGCCT | 1.02 ± 0.082
124 | TATGGTGGGG | 0.986 ± 0.034
125 | TATGGTGTAG | 1 ± 0.043
126 | TATGGTTATG | 1.008 ± 0.0072
127 | TATGTACTAT | 1.08 ± 0.029
128 | TATGTAGAAG | 1 ± 0.027
129 | TATGTAGACG | 1.04 ± 0.064
130 | TATGTAGGAG | 0.994 ± 0.018

Row | Sequence | switch fluorescence ratio
131 | TATGTCATAC | 1.14 ± 0.058
132 | TATGTCTCTC | 0.97458 ± 0.00069
133 | TATGTGAGGC | 0.993 ± 0.011
134 | TATGTGGCAC | 1.08 ± 0.061
135 | TATGTGGGAT | 0.9734 ± 0.0016
136 | TATGTGTGTG | 0.9889 ± 0.0089
137 | TATGTGTTGC | 1.03 ± 0.023
138 | TATGTTATAT | 0.991 ± 0.029
139 | TATGTTGTGT | 0.96 ± 0.037
140 | TATGTTTAAT | 0.994 ± 0.041
141 | TATGTTTGCC | 1.02 ± 0.047
142 | TATGTTTT | 1.02 ± 0.016
143 | TATGTTTTCT | 1.01 ± 0.039
144 | TATTAACGTA | 1.08 ± 0.022
145 | TATTAAGGGA | 0.995 ± 0.012
146 | TATTAATTGG | 0.9932 ± 0.0037
147 | TATTACTGAG | 1.07 ± 0.036
148 | TATTACTTTG | 1.01 ± 0.024
149 | TATTAGAATA | 0.9814 ± 0.006
150 | TATTAGACTA | 1.02 ± 0.022
151 | TATTAGGGGC | 1.04 ± 0.036
152 | TATTAGTAAT | 1.002 ± 0.0032
153 | TATTAGTAGC | 0.9995 ± 0.0013

— the supplement of paper PMC10126150
